Results from patent US20080260789A1.

Legend:
[1] = target: Cav channels of P. americana DUM neurons (Periplaneta americana); experiment: cell-based or functional assay
[2] = target: α-subunit of the P. americana high conductance calcium-activated potassium channel (pSlo) (Periplaneta americana); experiment: cell-based or functional assay

With rU-ACTX-Hv1a (peptide) the IC50 of block of Cav currents in DUM neurons, whole-cell patch clamp [1] was 409 nM and the IC50 of block of pSlo currents in HEK293 cells, whole-cell patch clamp [2] was 579 nM.
